Measurements from article doi:10.1101/2021.06.03.446896.
“And” between values parts separate entries of the source, which are not always exact repeats. Equal entries are not always repeated.

T1: dMi-2 (118-238) (UniProt O97159 118-238)
T1 sequence: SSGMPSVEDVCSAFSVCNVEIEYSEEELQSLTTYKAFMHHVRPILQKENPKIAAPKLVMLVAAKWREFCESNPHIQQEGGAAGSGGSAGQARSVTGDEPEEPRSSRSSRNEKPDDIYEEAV


Target: T2, dMi-2 WT (UniProt O97159 1-1982)
Test: EMSA

T2 sequence (O97159 whole entry): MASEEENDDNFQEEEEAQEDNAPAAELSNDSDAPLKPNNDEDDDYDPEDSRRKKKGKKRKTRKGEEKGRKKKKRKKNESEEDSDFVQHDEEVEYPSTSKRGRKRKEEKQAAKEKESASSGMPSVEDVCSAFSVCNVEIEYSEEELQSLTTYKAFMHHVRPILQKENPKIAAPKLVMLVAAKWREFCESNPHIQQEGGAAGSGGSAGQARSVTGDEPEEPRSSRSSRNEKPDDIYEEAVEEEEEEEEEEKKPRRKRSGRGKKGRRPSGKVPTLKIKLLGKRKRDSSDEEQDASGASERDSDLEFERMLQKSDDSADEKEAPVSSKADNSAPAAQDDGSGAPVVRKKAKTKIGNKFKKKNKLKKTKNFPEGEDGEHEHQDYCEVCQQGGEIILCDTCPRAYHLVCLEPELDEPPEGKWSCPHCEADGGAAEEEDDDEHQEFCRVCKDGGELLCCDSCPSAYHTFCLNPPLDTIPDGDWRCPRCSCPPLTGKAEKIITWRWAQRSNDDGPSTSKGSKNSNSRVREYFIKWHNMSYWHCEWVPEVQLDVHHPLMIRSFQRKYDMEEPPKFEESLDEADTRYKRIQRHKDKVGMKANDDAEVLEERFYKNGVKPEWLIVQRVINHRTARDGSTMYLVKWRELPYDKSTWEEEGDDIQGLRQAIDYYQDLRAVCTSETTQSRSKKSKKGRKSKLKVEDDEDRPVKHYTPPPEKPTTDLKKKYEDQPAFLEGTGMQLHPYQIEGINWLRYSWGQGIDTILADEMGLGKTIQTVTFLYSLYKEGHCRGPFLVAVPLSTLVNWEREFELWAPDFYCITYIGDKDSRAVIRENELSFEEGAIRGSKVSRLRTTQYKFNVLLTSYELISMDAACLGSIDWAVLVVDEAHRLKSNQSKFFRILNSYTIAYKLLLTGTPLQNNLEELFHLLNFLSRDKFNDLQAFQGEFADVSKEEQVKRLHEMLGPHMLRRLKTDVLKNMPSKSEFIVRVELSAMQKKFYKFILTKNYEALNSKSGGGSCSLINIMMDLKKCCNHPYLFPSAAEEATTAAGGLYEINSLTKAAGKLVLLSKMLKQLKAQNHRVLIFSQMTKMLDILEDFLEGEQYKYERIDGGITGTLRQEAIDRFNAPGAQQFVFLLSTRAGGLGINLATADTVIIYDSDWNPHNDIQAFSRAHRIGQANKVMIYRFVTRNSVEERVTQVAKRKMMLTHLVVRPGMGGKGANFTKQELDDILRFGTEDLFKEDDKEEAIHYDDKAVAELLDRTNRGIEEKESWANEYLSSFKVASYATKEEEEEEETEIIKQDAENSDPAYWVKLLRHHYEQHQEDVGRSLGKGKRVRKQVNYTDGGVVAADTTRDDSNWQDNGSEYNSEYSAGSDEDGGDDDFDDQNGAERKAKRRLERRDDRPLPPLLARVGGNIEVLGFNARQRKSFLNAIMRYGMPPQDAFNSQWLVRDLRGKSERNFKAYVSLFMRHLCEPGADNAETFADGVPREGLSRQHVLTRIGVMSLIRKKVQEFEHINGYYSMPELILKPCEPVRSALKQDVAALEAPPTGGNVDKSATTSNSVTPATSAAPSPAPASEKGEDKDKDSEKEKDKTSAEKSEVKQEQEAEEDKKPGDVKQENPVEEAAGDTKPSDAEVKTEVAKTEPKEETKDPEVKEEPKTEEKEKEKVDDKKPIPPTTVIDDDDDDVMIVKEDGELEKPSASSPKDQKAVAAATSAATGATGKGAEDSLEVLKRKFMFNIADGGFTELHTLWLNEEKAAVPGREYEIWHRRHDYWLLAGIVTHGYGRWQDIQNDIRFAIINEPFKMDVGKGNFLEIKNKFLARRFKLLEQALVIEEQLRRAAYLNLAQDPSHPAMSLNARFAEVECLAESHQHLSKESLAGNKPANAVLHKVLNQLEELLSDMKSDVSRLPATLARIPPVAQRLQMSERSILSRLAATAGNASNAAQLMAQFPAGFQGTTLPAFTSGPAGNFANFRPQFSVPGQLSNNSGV

Row | Binder | binding result
1 | Pgant35a #5 RNA (ssRNA) RNA: AAGUGCCACGAGAUGCUCGGCGAUCAGCAGUGGCGGCACACCCGCAACGCCAACAGUCCCGUCUACAACAUGGCCAAAGGCACCUGCCUCCGGGCAGCUG | binds
2 | Pgant35a #4 RNA (ssRNA) RNA: CUGCAUGUGCCGGGCGAGGAGUCCAAGAAGUCGGCGGCAGCGCCCAUCUUUCAGCCUUGGCACUCGCGAAAACGUAACUAUGUCGACACAUUCCAGCUGC | binds
3 | Hsp70Aa #2 RNA (ssRNA) RNA: GAGGACAUGAAGCACUGGCCUUUCAAGGUUGUAAGCGACGGCGGAAAGCCCAAGAUCGGGGUGGAGUAUAAGGGUGAGUCCAAGAGAUUUGCCCCCGAGG | binds
4 | Hsp70Aa #5 RNA (ssRNA) RNA: GCAGGCCGAGAUUGAUCGCAUGGUGAACGAGGCUGAAAAGUACGCCGACGAGGACGAGAAGCAUCGCCAGCGAAUAACCUCUAGAAAUGCCCUGGAGAGC | binds
5 | Pgant35a #2 RNA (ssRNA) RNA: UCUUCCGGGCGAUCCCAGACACUCGGCACAAGGUGUGCGAUCGCCAGGAGACCACGGAAGCGGAAAAUCUGCCCCAGGCCUCCAUAGUCAUGUGCUUCUA | binds
6 | Hsp70Aa #1 RNA (ssRNA) RNA: CUCACACACAAUGCCUGCUAUUGGAAUCGAUCUGGGCACCACCUACUCCUGCGUGGGUGUCUACCAACAUGGCAAGGUGGAGAUUAUCGCCAACGACCAG | binds
7 | Pgant35a #1 RNA (ssRNA) RNA: UCGGCAGGAUGGAGGAUCGACGAAGGGAACGCAACGCCACGGGCCGAGCUGAGCUACCAGGCCAGGGUCACCGUCGGAUGCACUCCAAAUGCCAGCAUUA | binds

Target: T2, dMi-2 WT
Test: EMSA
Remark: another data set of the same source

Row | Binder | Kd
8 | GAGAGAGAGAGAGAGAGAGAGAGAGAGAGAGAGAGAGAGA (ssRNA) [(GA)20 RNA] | 70 nM and 80 nM
9 | AAAAAAGGGGAAAAGGGGAAAAGGGGAAAAGGGGAAAAAA (structured_RNA) [(G4A4)4 RNA] | 80 nM
10 | CCUACGGACUGGACAAGAACCUCAAGGGUGAGCGCAAUGU (ssRNA) [Hsp70Aa #6 RNA] | 310 ± 100 nM
11 | Pgant35a #3 RNA (ssRNA) RNA: GUCAUUGGUGCACGCGAGGCCGUGGGCGAUGUGCUCGUCUUCCUCGACUCGCAUAUCGAGGUCAAUCAGCAGUGGCUGGAGCCGCUGCUGCGCCUCAUCA | 630 ± 280 nM
12 | Hsp70Aa dsDNA (dsDNA) DNA 1: not shown DNA 2: not shown | 820 ± 100 nM
13 | Hsp70Aa dsRNA (dsRNA) RNA 1: not shown RNA 2: not shown | 860 ± 100 nM

Target: T1, dMi-2 (118-238)
Test: EMSA

Row | Binder | binding result
14 | CCUACGGACUGGACAAGAACCUCAAGGGUGAGCGCAAUGU (ssRNA) [Hsp70Aa #6 RNA] | no binding
